Experimental data taken from PMC6829319, “Combination of SAXS and Protein Painting Discloses the Three-Dimensional Organization of the Bacterial Cysteine Synthase Complex, a Potential Target for Enhancers of Antibiotic Action” (International Journal of Molecular Sciences, 2019).

B1: O-acetylserine sulfhydrylase isozyme A (CysK) from E. coli (enzyme)
chain: KIFEDNSLTIGHTPLVRLNRIGNGRILAKVESRNPSFSVKCRIGANMIWDAEKRGVLKPGVELVEPTSGNTGIALAYVAAARGYKLTLTMPETMSIERRKLLKALGANLVLTEGAKGMKGAIQKAEEIVASNPEKYLLLQQFSNPANPEIHEKTTGPEIWEDTDGQVDVFIAGVGTGGTLTGVSRYIKGTKGKTDLISVAVEPTDSPVIAQALAGEEIKPGPHKIQGIGAGFIPANLDLKLVDKVIGITNEEAISTARRLMEEEGILAGISSGAAVAAALKLQEDESFTNKNIVVILPSSGERYLSTALFADLFTEKELQQ
notes: Carries the pyridoxal 5'-phosphate (PLP) cofactor; Dimer; source: E. coli BL21(DE3) or BL21(DE3) Tuner, pET21P vector, purified as previously described [50]

What was measured:
[1] = target: the molecule itself; experiment: SAXS; solution scattering at 10 °C; 20 mM sodium phosphate, 85 mM NaCl, 2 mM EDTA, 10 mM 2-MCE, pH 7.5; 0.5-1.5 mg/mL; CysK, CysE and CS (gel filtered and dialysed before) each measured; ab initio DAMMIF and SASREF rigid body models
[2] = target: B1; experiment: other fluorescence titration; PLP fluorescence emission of CysK at 500 nm after excitation at 412 nm with increasing concentrations of CysE; 20 °C; stoichiometric titration, ratio of CysE to CysK; details: both partners purified

stoichiometry N [2]	Binder	stoichiometry N [1]
1.7	serine acetyltransferase (CysE) from E. coli (enzyme, serine acetyltransferase (CysE), E. coli; Hexamer (dimer of trimers); source: E. coli BL21(DE3) or BL21(DE3) Tuner, pSH21p vector, purified, tag removed as previously described [50]) MSCEELEIVWNNIKAEARTLADCEPMLASFYHATLLKHENLGSALSYMLANKLSSPIMPAIAIREVVEEAYAADPEMIASAACDIQAVRTRDPAVDKYSTPLLYLKGFHALQAYRIGHWLWNQGRRALAIFLQNQVSVTFQVDIHPAAKIGRGIMLDHATGIVVGETAVIENDVSILQSVTLGGTGKSGGDRHPKIREGVMIGAGAKILGNIEVGRGAKIGAGSVVLQPVPPHTTAAGVPARIVGKPDSDKPSMDMDQHFNGINHTFEYGDGI	6
–	B1	2
